Assay results reported in patent US9428586B2, “Heparanase splice variant” (COMPUGEN LTD, priority 2010, dated 2016).

What was measured:
[1] = Heparanase activity assay of transfected 293 cell lysates on 35S-labelled ECM; format: biochemical, human
Text: FIG. 2. Cloning and expression of T5. A. RT-PCR analysis. Total RNA was extracted from the indicated cell line and subjected to RT-PCR analysis applying T5 (upper panel), heparanase (second panel) and GAPDH (third panel) specific primers, specified in the ‘Materials and Methods’ section. B. T5 transfection. […] Control cells were transfected with an empty vector (Vo). Cell lysates (left) and cell conditioned medium (right) were blotted with anti-heparanase 1453 antibody. C. Cellular localization. Stably transfected 293 cells were triple stained for Myc-tag (T5; middle, red), the ER marker calnexin (ER, left, green), and merged with cell nuclei labeled with TO-PRO (right, blue). Cells were similarly stained with anti-Myc-tag (T5; middle, red), the Golgi marker wheat germ agglutinin-FITC (Golgi, left, green) and merged with cell nuclei labeled with TO-PRO (right, blue). […] D. Enzymatic activity. 293 cells transfected with heparanase (Hepa), T5 or control empty vector (Vo) were subjected to three freeze-thaw cycles and applied onto culture dishes coated with ^35S-labelled ECM. Release of sulfate-labeled material eluted in fractions 15-30 was evaluated as measure of heparanase activity, as described in ‘Materials and Methods’. […]

[2] = target: Concanavalin A (Canavalia ensiformis, UniProt P02866); conditions: lysates of over expressing 293 cells
Protocol: FIG. 7. […] A. Cell lysates. […] Control (Vo), heparanase and T5 transfected 293 cells were left untreated (−) or incubated with heparin (+, 50 μg/ml) for 20 h under serum-free conditions. […] B,C. Peptide analysis. Peptides corresponding to the heparin binding domain of heparanase (KKDC) or T5 (CKKK) which includes its unique three amino acids (SKK), and control scrambled (Scr) peptide were subjected to gel electrophoresis prior to or following incubation with heparin beads (+Heparin). C. Enzymatic activity.

[3] = tested on: CAG myeloma cells; assay: CAG myeloma tumor xenograft development and immunohistochemistry; format: in vivo, athymic nude mice
Protocol: FIG. 5. T5 enhances tumor xenograft development. Control (Vo), heparanase-, and T5-infected CAG myeloma cells were injected subcutaneously (1×10^6/0.1 ml) and tumor volume was calculated (A). At the end of the experiment on day 37, tumors were resected, photographed (A, inset) and weighted (B). C. Immunohistochemical analysis. Paraffin-embedded 5 micron sections were stained with hematoxilin & eosin (left column), anti-CD31 (second left column), and anti-smooth muscle actin (SMA, two right columns) antibodies. Note increased blood vessels density and maturation (recruitment of SMA-positive cells) in xenografts produced by heparanase- and T5-infected cells. Cells from exponential cultures of control-, heparanase-, and T5-infected CAG myeloma cells were detached with trypsin/EDTA, washed with PBS and brought to a concentration of 1×10^7 cells/ml. Cell suspension (1×10 6/0.1 ml) was inoculated subcutaneously at the right flank of 5-weeks old female athymic nude mice (n=7). Xenograft size was determined twice a week by externally measuring tumors in two dimensions using a caliper. At the end of the experiment, mice were sacrificed and xenografts were removed, weighted and fixed in formalin. Paraffin-embedded 5 micron sections were subjected to immunostaining with anti-PECAM-1 (CD31) or anti-smooth muscle actin (1A4, Sigma) antibodies, using the Envision kit, according to the manufacturer's (Dako, Glostrup, Denmark) instructions, as described (Fux, L., et al., 2009, Cancer Res 69, 1758-1767). All animal experiments were approved by the Animal Care Committee of the Technion, Haifa, Israel.

[4] = tested on: HUVEC; assay: Tube-like structure formation on Matrigel; format: cell-based, human; conditions: T5 lenti virus infected HUVEC vs Vo, 24 h and 48 h
Protocol: FIG. 9. A. Tube-like structure formation. Human umbilical vein endothelial cells (HUVEC) were infected with control (Vo) or T5 lenti virus constructs and plated on reconstituted basement membrane (Matrigel). Spontaneous organization into tube-like structures was examined after 24 h (upper panels) and 48 h (lower panels). Note network stabilization upon T5 over expression at 48 h. B Immunofluorescent staining of control (Vo), heparanase-, and T5-infected HUVEC cells applying anti-heparanase 733 antibody (green, left panels). Merged images with nuclear staining (Topro, red) are shown in the right panels. Note T5 localization to endocytic vesicles.

[5] = tested on: Src; assay: Src phosphorylation (immunoblot, densitometry) in 293 cells; format: cell-based, human; conditions: over expressing 293 cells, serum-free
Protocol: FIG. 3. T5 augments Src phosphorylation. A. Over expression. CAG myeloma (left) and 293 (right) cells infected with heparanase (Hepa), T5, or control empty vector (Vo) were grown in the absence (-) or presence (+) of heparin (50 μg/ml) under serum-free conditions. Total cell lysates were subjected to immunoblotting applying anti-heparanase 1453 (upper and second panels), anti-phospho-Src (p-Src, third panels), anti-Src (fourth panels) anti-phospho-Erk (p-Erk, fifth panels), and anti-Erk2 (sixth panels) antibodies. Src phosphorylation index was calculated by densitometry analysis of phosphorylated Src levels divided by the total Src values. […] B. Gene silencing. Parental 293 cells were transfected with anti-heparanase, anti-T5, or control siRNAs. Total RNA was extracted and RT-PCR analysis was performed applying T5 (upper panel), heparanase (Hepa, second panel) and GAPDH (third panel) specific primers. Corresponding cell lysates were subjected to immunoblotting applying phospho-Src (p-Src, fourth panel), Src (fifth panel), phospho-Erk (p-Erk, sixth panel) and Erk2 (seventh panel) antibodies. Src phosphorylation index was calculated as above and is shown graphically in the lower panel. Note decreased Src phosphorylation levels upon T5 down regulation. […]

B1: T5: novel splice variant of heparanase; truncated, enzymatically inactive 169 amino acid protein (protein, listed as Homo sapiens)
chain: MLLRSKPALPPPLMLLLLGPLGPLSPGALPRPAQAQDVVDLDFFTQEPLHLVSPSFLSVTIDANLATDPRFLILLGSPKLRTLARGLSPAYLRFGGTKTDFLIFDPKKESTFEERSYWQSQVNQDICKYGSIPPDVEEKLRLEWPYQEQLLLREHYQKKFKNSTYSSKK
- effect on the activity of endogenous heparanase ([1]; T5 vs. Vo transfected 293 cells): did not seem to significantly impinge on the activity of endogenous heparanase
- heparanase enzymatic activity ([1]; lysates of stably transfected 293 cells, T5 vs. Hepa): lacks heparanase enzymatic activity
- interaction with the lectin Concanavalin A [2]: retained
- pericytes associated with blood vessels (smooth muscle actin) ([3]; CAG xenografts, immunohistochemistry): significantly increased number of pericytes
- average weight of xenografts ([3]; day 37, subcutaneous infected CAG cells, control 58±11 mg): 738 ± 114 mg
- development of tumor xenografts after day 21 vs control cells ([3]; subcutaneous infected CAG cells): markedly enhanced
- endothelial cell organization (tube formation) on Matrigel [4]: maintained for a relatively long period of time
- Src phosphorylation enhancement vs control Vo cells [5]: ~4 fold
